{"source": "paper PMC9883506", "about": "“Self-recycling and partially conservative replication of mycobacterial methylmannose polysaccharides” (Communications Biology, 2023)", "molecules": {"B1": {"name": "ManT (Mycolicibacterium hassiacum DSM 44199; E313A) (protein)", "chain": "MRIALLSYRSKTHCGGQGVYVRHLSRELAELGHDVEVFSGQPYPEGLDPRVRLTKVPSLDLYREPDPFRIPRPSEIKTSIDLEELLTTWTAGFPEPKTFSLRAARVLAGRRGDFDVVHDNQCLGTGLLQIAKMGFPLVATVHHPITRDREVEVAAARWWRKPLVRRWYGFVEMQKRVARQIPELLTVSSASASDILTDFAVSPEQLHVVPLGVDTKLFQPREGRVRNRIIAIASADVPLKGVSHLLHAVARLRVERDVELQLVTKLEPNGPTEKLIAELGISDIVHTSSGLSDEELAALLASAEVACIPSLYAGFSLPAVEAMASGTPIVASRAGALPEVVGPDGECARLVTPADVDELTAVLGRLLDSPRELRRLGDNGRRRAVEVFSWQSVAAQTVAVYEKAIARVAAC", "notes": "full length, N-terminal His6 tag (pETM11, tag not removed), synthetic gene, E. coli BL21(DE3); purified with Triton X-100"}, "B2": {"name": "ManT (Mycolicibacterium hassiacum DSM 44199) (protein)", "chain": "B1 chain with A313E", "notes": "as for B1"}}, "key": {"MeT1": {"molecular_target": "T1, MeT1 (Mycolicibacterium hassiacum, UniProt K5B7F3)", "T1 construct": "full length, C-terminal His6 tag (pET30a), synthetic gene, E. coli BL21(DE3)", "T1 sequence (K5B7F3 whole entry)": "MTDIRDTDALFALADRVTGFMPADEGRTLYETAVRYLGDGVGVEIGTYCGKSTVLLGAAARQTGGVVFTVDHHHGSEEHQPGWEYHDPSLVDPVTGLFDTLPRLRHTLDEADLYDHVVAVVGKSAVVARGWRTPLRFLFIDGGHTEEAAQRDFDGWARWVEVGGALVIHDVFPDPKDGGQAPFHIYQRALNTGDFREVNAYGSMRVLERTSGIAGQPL", "assay": "SahH-coupled DTNB assay of SAH release", "assay_type": "biochemical", "conditions": "100 μM MnCl2, BTP pH 7.5"}, "[1]": {"substrate": "Nc1nc2c(ncn2[C@@H]2O[C@H](COP(=O)(O)OP(=O)(O)O[C@H]3O[C@H](CO)[C@@H](O)[C@H](O)[C@@H]3O)[C@@H](O)[C@H]2O)c(=O)[nH]1", "assay": "coupled PK/LDH NADH assay of GDP release", "assay_type": "biochemical, Mycolicibacterium hassiacum", "conditions": "0.1% Triton X-100, 50 mM BTP pH 8.5, 37 °C, donor", "text": "(§1) coupled PK/LDH NADH assay of GDP release on ManT"}, "[2]": {"substrate": "CCCO[C@H]1O[C@H](CO)[C@@H](O[C@H]2O[C@H](CO)[C@@H](O[C@H]3O[C@H](CO)[C@@H](O[C@H]4O[C@H](CO)[C@@H](O)[C@H](OC)[C@@H]4O)[C@H](OC)[C@@H]3O)[C@H](OC)[C@@H]2O)[C@H](OC)[C@@H]1O", "assay": "coupled PK/LDH NADH assay of GDP release", "assay_type": "biochemical, Mycolicibacterium hassiacum", "conditions": "2.5 mM GDP-Man, 7.5 mM MgCl2, 5 mM NaCl, 0.1% Triton X-100, 50 mM BTP pH 8.5, 37 °C, acceptor", "text": "as §1"}, "[3]": {"substrate": "CCCO[C@H]1O[C@H](CO)[C@@H](O[C@H]2O[C@H](CO)[C@@H](O[C@H]3O[C@H](CO)[C@@H](O[C@H]4O[C@H](CO)[C@@H](O)[C@H](O)[C@@H]4O)[C@H](O)[C@@H]3O)[C@H](O)[C@@H]2O)[C@H](O)[C@@H]1O", "assay": "coupled PK/LDH NADH assay of GDP release", "assay_type": "biochemical, Mycolicibacterium hassiacum", "conditions": "5 mM GDP-Man, 7.5 mM MgCl2, 5 mM NaCl, 0.1% Triton X-100, 50 mM BTP pH 8.5, 37 °C, acceptor", "text": "as §1"}, "[4]": {"conditions": "3.5 mM sMetMan4, 7.5 mM MgCl2, 5 mM NaCl"}, "[5]": {"conditions": "1.5 mM sMetMan4, 7.5 mM MgCl2, 5 mM NaCl"}}, "note": "Changes are numbered by the printed parent chain. In names and notes the source's numbering stands.", "data": [{"molecule": "CO[C@@H]1[C@H](O)[C@@H](O[C@H]2[C@H](OC)[C@H](O)C(O)O[C@@H]2CO)O[C@H](CO)[C@H]1O", "note": "(stereo partly drawn) [sMetMan2]", "values": [{"measurement": "SahH-coupled DTNB assay of SAH release", "setting": "MeT1; 1 mM SAM, 1.5 mM acceptor", "value": "The activity of MeT1 toward the synthetic substrate sMetMan2 and the two natural substrates"}]}, {"molecule": "C[S+](CC[C@H](N)C(=O)O)C[C@H]1O[C@@H](n2cnc3c(N)ncnc32)[C@H](O)[C@@H]1O", "note": "(stereo partly drawn) [SAM, S-adenosyl-methionine]", "values": [{"measurement": "SahH-coupled DTNB assay of SAH release", "setting": "MeT1; 1.5 mM oligomannoside acceptor, methyl donor", "value": "quantified from the S-adenosyl-homocysteine (SAH) released from SAM through a continuous"}]}, {"molecule": "B1", "values": [{"measurement": "Km", "setting": "[1]; [4]", "value": "1230 ± 300", "unit": "µM"}, {"measurement": "kcat/Km", "setting": "[1]; [4]", "value": "7 ± 2", "unit": "M⁻¹ s⁻¹"}, {"measurement": "Km", "setting": "[2]", "value": "1180 ± 300", "unit": "µM"}, {"measurement": "kcat/Km", "setting": "[2]", "value": "5 ± 1", "unit": "M⁻¹ s⁻¹"}]}, {"molecule": "B2", "values": [{"measurement": "Km", "setting": "[1]; [5]", "value": "280 ± 50", "unit": "µM"}, {"measurement": "kcat/Km", "setting": "[1]; [5]", "value": "171 ± 33", "unit": "M⁻¹ s⁻¹"}, {"measurement": "Km", "setting": "[3]", "value": "2780 ± 450", "unit": "µM"}, {"measurement": "kcat/Km", "setting": "[3]", "value": "9 ± 2", "unit": "M⁻¹ s⁻¹"}, {"measurement": "Km", "setting": "[2]", "value": "130 ± 30", "unit": "µM"}, {"measurement": "kcat/Km", "setting": "[2]", "value": "362 ± 68", "unit": "M⁻¹ s⁻¹"}]}]}
